From patent US20250295737A1 (AstraZeneca / MedImmune, published 2025) come the findings set out here.

To fix the notation:
B1: RELAX0085 (Fc fusion)
chain 1: DKTHTCPPCPAPEFEGGPSVFLFPPKPKDTLMISRTPEVTCVVVDVSHEDPEVKFNWYVDGVEVHNAKTKPREEQYNSTYRVVSVLTVLHQDWLNGKEYKCKVSNKALPASIEKTISKAKGQPREPQVYTLPPCREEMTKNQVSLWCLVKGFYPSDIAVEWESNGQPENNYKTTPPVLDSDGSFFLYSKLTVDKSRWQQGNVFSCSVMHEALHNHYTQKSLSLSPGGGGGSGGGGSGGGGSGGGGGSQLYSALANKCCHVGCTKRSLARFC
chain 2: DKTHTCPPCPAPEFEGGPSVFLFPPKPKDTLMISRTPEVTCVVVDVSHEDPEVKFNWYVDGVEVHNAKTKPREEQYNSTYRVVSVLTVLHQDWLNGKEYKCKVSNKALPASIEKTISKAKGQPREPQVCTLPPSREEMTKNQVSLSCAVKGFYPSDIAVEWESNGQPENNYKTTPPVLDSDGSFFLVSKLTVDKSRWQQGNVFSCSVMHEALHNHYTQKSLSLSPGAPAPAPAPAPAPAPAPAPAGSSWMEEVIKLCGRELVRAQIAICGMSTWS
B2: RELAX0087 (Fc fusion)
chain 1: B1 chain 1
chain 2: DKTHTCPPCPAPEFEGGPSVFLFPPKPKDTLMISRTPEVTCVVVDVSHEDPEVKFNWYVDGVEVHNAKTKPREEQYNSTYRVVSVLTVLHQDWLNGKEYKCKVSNKALPASIEKTISKAKGQPREPQVCTLPPSREEMTKNQVSLSCAVKGFYPSDIAVEWESNGQPENNYKTTPPVLDSDGSFFLVSKLTVDKSRWQQGNVFSCSVMHEALHNHYTQKSLSLSPGGGGGSGGGGSGGGGGSSWMEEVIKLCGRELVRAQIAICGMSTWS
B3: RELAX0105 (Fc fusion)
chain 1: DKTHTCPPCPAPEFEGGPSVFLFPPKPKDTLMISRTPEVTCVVVDVSHEDPEVKFNWYVDGVEVHNAKTKPREEQYNSTYRVVSVLTVLHQDWLNGKEYKCKVSNKALPASIEKTISKAKGQPREPQVYTLPPCREEMTKNQVSLWCLVKGFYPSDIAVEWESNGQPENNYKTTPPVLDSDGSFFLYSKLTVDKSRWQQGNVFSCSVMHEALHNHYTQKSLSLSPGGGGGSGGGGSGGGGGSQLYSALANKCCHVGCTKRSLARFC
chain 2: B1 chain 2
B4: RELAX0107 (Fc fusion)
chain 1: DKTHTCPPCPAPEFEGGPSVFLFPPKPKDTLMISRTPEVTCVVVDVSHEDPEVKFNWYVDGVEVHNAKTKPREEQYNSTYRVVSVLTVLHQDWLNGKEYKCKVSNKALPASIEKTISKAKGQPREPQVYTLPPCREEMTKNQVSLWCLVKGFYPSDIAVEWESNGQPENNYKTTPPVLDSDGSFFLYSKLTVDKSRWQQGNVFSCSVMHEALHNHYTQKSLSLSPGGGGGGSQLYSALANKCCHVGCTKRSLARFC
chain 2: B1 chain 2
B5: RELAX0106 (Fc fusion)
chain 1: DKTHTCPPCPAPEFEGGPSVFLFPPKPKDTLMISRTPEVTCVVVDVSHEDPEVKFNWYVDGVEVHNAKTKPREEQYNSTYRVVSVLTVLHQDWLNGKEYKCKVSNKALPASIEKTISKAKGQPREPQVYTLPPCREEMTKNQVSLWCLVKGFYPSDIAVEWESNGQPENNYKTTPPVLDSDGSFFLYSKLTVDKSRWQQGNVFSCSVMHEALHNHYTQKSLSLSPGGGGGSGGGGGSQLYSALANKCCHVGCTKRSLARFC
chain 2: B1 chain 2
B6: RELAX0084 (Fc fusion)
chain 1: DKTHTCPPCPAPEFEGGPSVFLFPPKPKDTLMISRTPEVTCVVVDVSHEDPEVKFNWYVDGVEVHNAKTKPREEQYNSTYRVVSVLTVLHQDWLNGKEYKCKVSNKALPASIEKTISKAKGQPREPQVYTLPPCREEMTKNQVSLWCLVKGFYPSDIAVEWESNGQPENNYKTTPPVLDSDGSFFLYSKLTVDKSRWQQGNVFSCSVMHEALHNHYTQKSLSLSPGAPAPAPAPAPAPAPAPAPAGSQLYSALANKCCHVGCTKRSLARFC
chain 2: DKTHTCPPCPAPEFEGGPSVFLFPPKPKDTLMISRTPEVTCVVVDVSHEDPEVKFNWYVDGVEVHNAKTKPREEQYNSTYRVVSVLTVLHQDWLNGKEYKCKVSNKALPASIEKTISKAKGQPREPQVCTLPPSREEMTKNQVSLSCAVKGFYPSDIAVEWESNGQPENNYKTTPPVLDSDGSFFLVSKLTVDKSRWQQGNVFSCSVMHEALHNHYTQKSLSLSPGGGGGSGGGGSGGGGSGGGGGSSWMEEVIKLCGRELVRAQIAICGMSTWS
B7: RELAX0086 (Fc fusion)
chain 1: B3 chain 1
chain 2: B6 chain 2

The first experiment deals with T1, human RXFP1 (human, UniProt Q9HBX9 1-757).
T1 sequence (looked up): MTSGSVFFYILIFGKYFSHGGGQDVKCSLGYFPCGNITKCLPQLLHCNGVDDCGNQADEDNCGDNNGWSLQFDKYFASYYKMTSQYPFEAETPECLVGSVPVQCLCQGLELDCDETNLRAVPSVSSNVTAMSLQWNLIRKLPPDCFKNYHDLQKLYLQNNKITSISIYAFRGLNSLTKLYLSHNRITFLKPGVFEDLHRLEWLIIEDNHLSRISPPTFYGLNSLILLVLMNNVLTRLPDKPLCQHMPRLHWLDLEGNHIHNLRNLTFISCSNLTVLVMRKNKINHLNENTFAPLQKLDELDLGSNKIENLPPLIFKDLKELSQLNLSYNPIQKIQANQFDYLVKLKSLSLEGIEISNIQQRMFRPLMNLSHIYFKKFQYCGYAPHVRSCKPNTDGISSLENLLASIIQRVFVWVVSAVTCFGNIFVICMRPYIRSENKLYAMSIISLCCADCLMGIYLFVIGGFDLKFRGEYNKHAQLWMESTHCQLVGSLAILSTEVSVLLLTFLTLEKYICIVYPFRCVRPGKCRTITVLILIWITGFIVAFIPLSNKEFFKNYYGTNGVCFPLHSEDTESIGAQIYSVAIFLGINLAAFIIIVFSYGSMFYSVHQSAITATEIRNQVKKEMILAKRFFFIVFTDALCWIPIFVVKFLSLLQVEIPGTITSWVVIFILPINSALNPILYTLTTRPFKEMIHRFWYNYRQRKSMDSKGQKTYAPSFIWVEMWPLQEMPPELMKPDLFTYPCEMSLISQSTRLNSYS
The experiment is described as follows: cell-based or functional assay.
Take B1: the “EC50 hRXFP1 (M), cAMP HTRF assay” value is 6.37e-11 M.

Consider B2, for which the “EC50 hRXFP1 (M), cAMP HTRF assay” value was determined as 4.89e-11 M.

B3: the “EC50 hRXFP1 (M), cAMP HTRF assay” value turned out to be 7.12e-11 M.

On to B4, for which the “EC50 hRXFP1 (M), cAMP HTRF assay” value was determined as 8.09e-11 M.

As to B5, the “EC50 hRXFP1 (M), cAMP HTRF assay” value was found to be 6.96e-11 M.

For the molecule B6, the “EC50 hRXFP1 (M), cAMP HTRF assay” value stood at 5.34e-11 M.

As to B7, the “EC50 hRXFP1 (M), cAMP HTRF assay” value amounted to 4.49e-11 M.

For the next experiment, the target named is T2, mouse RXFP1 (mouse, UniProt Q6R6I7 1-758).
T2 sequence (looked up): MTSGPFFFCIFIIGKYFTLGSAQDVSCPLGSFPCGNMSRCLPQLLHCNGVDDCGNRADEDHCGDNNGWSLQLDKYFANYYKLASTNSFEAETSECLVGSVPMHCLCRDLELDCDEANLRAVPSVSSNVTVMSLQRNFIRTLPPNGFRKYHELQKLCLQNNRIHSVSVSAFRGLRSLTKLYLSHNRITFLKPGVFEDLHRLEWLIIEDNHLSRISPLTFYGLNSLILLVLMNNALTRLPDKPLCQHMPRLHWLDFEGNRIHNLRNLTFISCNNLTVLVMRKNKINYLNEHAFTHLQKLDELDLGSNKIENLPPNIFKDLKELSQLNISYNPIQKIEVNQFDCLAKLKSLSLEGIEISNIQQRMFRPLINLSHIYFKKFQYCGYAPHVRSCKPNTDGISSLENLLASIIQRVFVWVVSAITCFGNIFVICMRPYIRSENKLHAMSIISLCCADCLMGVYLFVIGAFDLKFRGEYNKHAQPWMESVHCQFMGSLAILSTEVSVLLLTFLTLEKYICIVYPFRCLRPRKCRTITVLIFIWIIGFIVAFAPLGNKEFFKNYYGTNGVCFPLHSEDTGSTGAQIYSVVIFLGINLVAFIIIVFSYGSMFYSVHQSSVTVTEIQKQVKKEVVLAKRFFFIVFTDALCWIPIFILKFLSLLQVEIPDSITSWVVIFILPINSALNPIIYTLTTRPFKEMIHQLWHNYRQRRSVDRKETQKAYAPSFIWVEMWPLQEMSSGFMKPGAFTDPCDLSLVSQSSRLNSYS
The experiment is described as follows: cell-based or functional assay.
As for B1, the “EC50 mRXFP1 (M), cAMP HTRF assay” value was 3.09e-11 M.

For the molecule B2, the “EC50 mRXFP1 (M), cAMP HTRF assay” value is 3.48e-11 M.

On to B3, for which the “EC50 mRXFP1 (M), cAMP HTRF assay” value was 1.49e-11 M.

Take B4: the “EC50 mRXFP1 (M), cAMP HTRF assay” value was 3.87e-11 M.

Take B5: the “EC50 mRXFP1 (M), cAMP HTRF assay” value is 1.98e-11 M.

Consider B6, for which the “EC50 mRXFP1 (M), cAMP HTRF assay” value was determined as 3.48e-11 M.

With B7, the “EC50 mRXFP1 (M), cAMP HTRF assay” value is 2.68e-11 M.

For a further experiment, the target named is human RXFP2 (human, UniProt Q8WXD0 1-754). The experiment is described as follows: cell-based or functional assay.
Sequence of human RXFP2 (Q8WXD0 whole entry): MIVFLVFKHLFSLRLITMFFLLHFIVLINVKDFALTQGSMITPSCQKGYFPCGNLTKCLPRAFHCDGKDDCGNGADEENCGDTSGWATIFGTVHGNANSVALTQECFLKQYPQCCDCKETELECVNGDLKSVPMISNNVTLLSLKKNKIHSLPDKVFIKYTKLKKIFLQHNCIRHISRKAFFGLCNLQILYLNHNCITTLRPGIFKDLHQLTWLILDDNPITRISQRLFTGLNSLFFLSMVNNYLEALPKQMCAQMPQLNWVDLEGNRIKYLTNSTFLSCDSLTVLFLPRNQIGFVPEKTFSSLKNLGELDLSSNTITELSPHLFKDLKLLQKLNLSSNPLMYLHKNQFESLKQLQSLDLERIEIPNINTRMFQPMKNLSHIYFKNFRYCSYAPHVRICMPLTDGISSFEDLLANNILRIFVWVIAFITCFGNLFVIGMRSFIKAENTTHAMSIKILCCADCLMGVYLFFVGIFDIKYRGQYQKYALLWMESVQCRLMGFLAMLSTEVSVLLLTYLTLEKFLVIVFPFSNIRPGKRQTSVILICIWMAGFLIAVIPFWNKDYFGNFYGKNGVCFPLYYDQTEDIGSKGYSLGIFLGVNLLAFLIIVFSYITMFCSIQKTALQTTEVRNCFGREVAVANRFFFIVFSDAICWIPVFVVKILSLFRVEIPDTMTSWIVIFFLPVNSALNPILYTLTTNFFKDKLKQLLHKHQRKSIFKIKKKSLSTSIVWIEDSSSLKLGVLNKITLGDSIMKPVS
As to B1, the “EC50 hRXFP2 (M), cAMP HTRF assay” value was found to be 4.67e-08 M.

On to B2, for which the “EC50 hRXFP2 (M), cAMP HTRF assay” value was found to be 3.63e-08 M.

In the case of B3, the “EC50 hRXFP2 (M), cAMP HTRF assay” value stood at 3.33e-08 M.

As for B4, the “EC50 hRXFP2 (M), cAMP HTRF assay” value came out at 1.22e-07 M.

Regarding B5, the “EC50 hRXFP2 (M), cAMP HTRF assay” value was determined as 4.94e-08 M.

For the molecule B6, the “EC50 hRXFP2 (M), cAMP HTRF assay” value was found to be 1.2e-08 M.

As for B7, the “EC50 hRXFP2 (M), cAMP HTRF assay” value is 4.88e-08 M.
